Data from patent US20050085629A1, “Utilization of FPRL1 as a functional receptor by serum amyloid A (SAA)” (priority 1999, published 2005).

Experiments:
FPRL1 [1] = target: T1, FPRL1 (Homo sapiens, UniProt P25090); experiment: 125I-SAA ligand binding to FPRL1/293 cells
T1 sequence (P25090 1-351): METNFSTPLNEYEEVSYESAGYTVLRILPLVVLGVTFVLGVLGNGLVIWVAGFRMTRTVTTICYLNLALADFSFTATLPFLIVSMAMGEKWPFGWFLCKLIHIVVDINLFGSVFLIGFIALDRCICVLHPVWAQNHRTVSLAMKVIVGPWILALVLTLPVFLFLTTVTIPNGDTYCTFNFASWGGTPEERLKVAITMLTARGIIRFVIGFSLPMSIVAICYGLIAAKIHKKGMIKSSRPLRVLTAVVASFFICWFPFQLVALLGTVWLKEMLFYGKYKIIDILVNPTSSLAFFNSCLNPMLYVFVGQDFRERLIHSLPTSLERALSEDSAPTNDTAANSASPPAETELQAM
Procedure: (§1) rhSAA (20: g) was radio-iodinated on tyrosine and lysine residues with the chloramine T method and the specific activity of the labeled SAA was 5.8 mCi/mg (courtesy of J. Dobbs, SAIC Frederick, NCI-FCRDC, Frederick, Md.). A constant concentration of 16 nM ^125I-SAA was incubated for 20 min at 37° C. with human monocytes or 293 cells transfected with chemoattractant receptor cDNAs (1.5-2×10^6/sample, in 200: l RPMI1640, 1% BSA, 0.05% NaN3) in the presence of increasing concentrations of unlabeled SAA. After incubation, the cells were washed once with ice-cold PBS then were layered onto a 10% sucrose/PBS cushion in Eppendorf tubes. The cells were centrifuged at 10,000 g for 1 min and the tips of the tubes containing cell pellets were cut and measured for radioactivity in a γ-counter. The binding data were analyzed and plotted with a computer-aided program LIGAND (P. Munson, Division of Computer Research and Technology, NIH, Bethesda, Md.). The level of specific binding was determined by subtraction of non-specific binding (cpm on cells in the presence of 1: M unlabeled SAA) from the total binding (cpm on cells in the absence of unlabeled SAA). Experiments were performed at least 5 times which yielded similar results.

FPRL1 [2] = target: T1, FPRL1; experiment: Calcium mobilization (Fura-2) in FPRL1 transfected HEK 293 cells (FPRL1/293 cells); type: cell-based
FPRL1 [3] = target: T1, FPRL1; experiment: Chemotaxis of FPRL1/293 cells (48-well microchemotaxis chamber); type: cell-based; details: for agonist activity on FPRL1: concluded from chemotaxis experiments
human monocytes [4] = experiment: 125I-SAA ligand binding to human monocytes
Description: GLPEKY. (SEQ. ID. No. 1). This rhSAA corresponds to SAA-1α, one of the major SAA isoforms in the serum, except for the addition of a methionine at the NH2 terminus as well as the substitution of aspartic acid for asparagine at position 60, which appears in the SAA2 isoform (reviewed in ref. Steinkasserer et al., Biochem. J., 268:187-193 (1990)). rhSAA at concentrations used in the study was negative for endotoxin as assessed by Limulus amebocyte lysate assays (sensitivity: 0.06 IU/ml. Bio Whittaker, Walkersville, Md.). High density lipoprotein (HDL) was purchased from Sigma (St. Louis, Mo.). […]
rhSAA (20: g) was radio-iodinated on tyrosine and lysine residues with the chloramine T method and the specific activity of the labeled SAA was 5.8 mCi/mg (courtesy of J. Dobbs, SAIC Frederick, NCI-FCRDC, Frederick, Md.). […] The cells were centrifuged at 10,000 g for 1 min and the tips of the tubes containing cell pellets were cut and measured for radioactivity in a γ-counter. The binding data were analyzed and plotted with a computer-aided program LIGAND (P. Munson, Division of Computer Research and Technology, NIH, Bethesda, Md.). The level of specific binding was determined by subtraction of non-specific binding (cpm on cells in the presence of 1: M unlabeled SAA) from the total binding (cpm on cells in the absence of unlabeled SAA). […]

human monocytes [5] = experiment: Cross-desensitization of Ca2+ mobilization in human monocytes (and neutrophils); type: cell-based
[6] = target: human peripheral blood CD3+ T lymphocytes; experiment: 125I-SAA binding to human peripheral blood CD3+ T lymphocytes
FPR [7] = target: T2, FPR (Homo sapiens, UniProt P21462); experiment: Radiolabeled SAA binding to cells transfected to express FPR; parameters: expressed in transfected cells; details: cells transfected to express the receptor
T2 sequence (P21462 1-350): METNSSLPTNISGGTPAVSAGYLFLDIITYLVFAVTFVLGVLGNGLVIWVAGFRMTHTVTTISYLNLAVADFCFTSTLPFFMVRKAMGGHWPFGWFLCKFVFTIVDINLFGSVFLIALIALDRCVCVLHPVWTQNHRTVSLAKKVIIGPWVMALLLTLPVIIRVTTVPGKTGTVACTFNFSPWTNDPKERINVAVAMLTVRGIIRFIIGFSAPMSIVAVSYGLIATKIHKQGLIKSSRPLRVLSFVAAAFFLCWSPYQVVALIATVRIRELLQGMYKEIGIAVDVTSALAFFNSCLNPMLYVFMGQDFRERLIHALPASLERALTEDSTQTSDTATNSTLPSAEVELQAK
Procedure: as §1

neutrophils = experiment: 125I-SAA ligand binding to neutrophils; parameters: species or system human
FPR [8] = target: T2, FPR; details: FPR expressing 293 cells, FIG. 2C
leukocyte = details: from Badolato et al. 1994, Xu et al. 1995, Badolato et al. 1995; cited from earlier work
FPR [9] = target: T2, FPR; experiment: Chemotaxis of FPR expressing ETFR cells (48-well microchemotaxis chamber); type: cell-based; parameters: expressed in transfected cells; host or cells: ETFR cells (rat basophil leukemia cell line), gift from Drs; H. Ali and R. Snyderman; details: FIG. 3B
[10] = FPRL1/293 cells, commercially available LXA4 (Biomol)
[11] = FPRL1/293 cells pretreated with toxin

## CCCCC[C@H](O)/C=C/C=C\C=C\C=C\[C@@H](O)[C@@H](O)CCCC(=O)O [LXA4, lipoxin A4]
FPRL1 [1]; phagocytes or FPRL1/293 cells
  inhibition of SAA binding: nor did we observe inhibition
FPRL1 [2]; [10]
  induction of Ca2+ flux: did not detect a significant induction
FPRL1 [3]; [10]
  induction of chemotaxis: did not detect a significant induction

## CSCC[C@H](NC=O)C(=O)N[C@@H](CC(C)C)C(=O)N[C@@H](Cc1ccccc1)C(=O)O [fMLP, N-formyl-methionyl-leucyl-phenylalanine]
Human monocytes [4]; unlabeled fMLP at high concentrations (≧10: M), FIG. 4C
  competition with 125I-SAA for binding: only partially competed
FPRL1 [1]; unlabeled fMLP at high concentrations (≧10: M), FPRL1/293 cells, FIG. 4D
  competition with 125I-SAA for binding: only partially competed
Human monocytes [5]; fMLP 10^-3 M = 1 mM, monocytes, FIG. 1C
  desensitization of SAA-induced Ca2+ mobilization: completely desensitized
Human monocytes [5]; fMLP at 100 nM, monocytes, FIG. 1B
  desensitization of SAA-induced Ca2+ mobilization: partial desensitizing effect
Human monocytes [5]; fMLP at relatively high concentrations (10: M and more), monocytes and neutrophils
  attenuation of subsequent cell response (Ca2+) to SAA: able to attenuate a subsequent cell response to SAA
FPRL1 [2]; FPRL1/293 cells, sequential stimulation, fMLP at 100 fold excess of SAA
  desensitization of Ca2+ flux response to SAA by prior fMLP: only partially desensitized
FPRL1 [3]; FPRL1/293 cells, wide range of concentrations, FIG. 3A
  cell migration in response to stimulant: failed to migrate
FPRL1 [3]
  agonist activity on FPRL1: partial agonist

## pertussis toxin
FPRL1 [2]; [11]
  effect of cell pretreatment on SAA induced Ca2+ mobilization: inhibited
FPRL1 [3]; [11]
  effect of cell pretreatment on SAA induced chemotaxis: inhibited

B1: ^125I-SAA: rhSAA radio-iodinated on tyrosine and lysine residues with the chloramine T method (protein)
chain: MRSFFSFLGEAFDGARDMWRAYSDMREANYIGSDKYFHARGNYDAAKRGPGGVWAAEAISNARENIQRFFGRGAEDSLADQAANEWGRSGKDPNHFRPAGLPEKY
Human monocytes [4]; FIG. 4B
  specific binding: specifically bound
FPRL1 [1]; FPRL1/293 cells, FIG. 4A
  binding sites/cell: 42000 binding sites/cell
[6]
  Kd: 300 nM
FPR [7]
  binding to FPR receptor: not the FPR receptor
neutrophils
  Kd: 45 nM

B2: serum amyloid A (protein, listed as Homo Sapiens)
chain: MRSFFSFLGEAFDGARDMWRAYSDMREANYIGSDKYFHARGNYDAAKRGPGGVWAAEAISNARENIQRFFGRGAEDSLADQAANEWGRSGKDPNHFRPAGLPEKY
modifications: N-terminal methionine
notes: Recombinant human SAA from Pepro Tech; corresponds to SAA-1α with added NH2-terminal methionine and aspartic acid for asparagine at position 60
FPR [8]
  induction of Ca2+ mobilization: not in FPR expressing cells
Human monocytes [5]; SAA at 1: M, monocytes or neutrophils
  desensitization of Ca2+ flux induced by chemokines (MCP-1, RANTES, MCP-3, MIP-1, IL-8, SDF-1): failked to desensitize
Human monocytes [5]; fMLP used at 100 nM, monocytes, FIG. 1A
  attenuation of cell response (Ca2+) to fMLP: did not attenuate the cell response
leukocyte
  optimal concentrations to induce leukocyte migration, adhesion and tissue infiltration: 0.8-4 : M
FPRL1 [2]; FPRL1/293 cells, sequential stimulation, 100 fold excess of fMLP
  desensitization of Ca2+ flux response to fMLP by prior SAA: able to desensitize the cell response to a 100 fold excess of fMLP
FPRL1 [2]; FPRL1 transfected cells (FPRL1/293 cells), FIG. 2B, read-out: EC50 for Ca2+ mobilization
  EC50: 250 nM
FPR [9]
  cell migration in response to stimulant: did not migrate
FPRL1 [3]; FPRL1/293 cells, read-out: EC50 of migratory response (chemotaxis)
  EC50: 200 nM
FPRL1 [3]
  agonist activity on FPRL1: full agonist activity
